In patent publication US20120004175A1 (RESEARCH FOUNDATION OF STATE UNIVERSITY OF NEW YORK, published 2012):

Target: T1, NF-κB p65 (mouse, intestinal epithelial cells of wild-type C57BL/6J and Min mice) (mouse, UniProt Q04207 1-549)
T1 construct: Endogenous mouse protein
Assay: anti-p65 immunoprecipitation of nuclear extract from mouse intestinal epithelial cells, immunoblot

T1 sequence (Q04207 whole entry): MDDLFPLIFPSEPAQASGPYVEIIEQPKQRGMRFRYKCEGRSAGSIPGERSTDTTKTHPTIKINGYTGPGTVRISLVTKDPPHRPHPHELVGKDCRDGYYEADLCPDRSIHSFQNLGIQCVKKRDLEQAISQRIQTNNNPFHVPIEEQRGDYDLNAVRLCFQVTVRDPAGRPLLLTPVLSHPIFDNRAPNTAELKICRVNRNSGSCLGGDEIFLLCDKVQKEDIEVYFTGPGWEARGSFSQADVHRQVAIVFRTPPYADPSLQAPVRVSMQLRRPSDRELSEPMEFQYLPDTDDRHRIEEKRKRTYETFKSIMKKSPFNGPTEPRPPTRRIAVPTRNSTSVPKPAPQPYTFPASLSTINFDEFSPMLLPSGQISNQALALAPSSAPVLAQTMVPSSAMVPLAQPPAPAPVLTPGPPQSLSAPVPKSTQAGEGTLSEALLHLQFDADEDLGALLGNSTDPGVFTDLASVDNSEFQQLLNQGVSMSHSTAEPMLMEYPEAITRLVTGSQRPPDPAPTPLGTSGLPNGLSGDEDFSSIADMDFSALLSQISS

binding result: binds
B1: annexin 1 (mouse, intestinal epithelial cells of wild-type C57BL/6J and Min mice) (other, UniProt P10107 2-346, looked up)
chain: AMVSEFLKQARFLENQEQEYVQAVKSYKGGPGSAVSPYPSFNVSSDVAALHKAIMVKGVDEATIIDILTKRTNAQRQQIKAAYLQENGKPLDEVLRKALTGHLEEVVLAMLKTPAQFDADELRGAMKGLGTDEDTLIEILTTRSNEQIREINRVYREELKRDLAKDITSDTSGDFRKALLALAKGDRCQDLSVNQDLADTDARALYEAGERRKGTDVNVFTTILTSRSFPHLRRVFQNYGKYSQHDMNKALDLELKGDIEKCLTTIVKCATSTPAFFAEKLYEAMKGAGTRHKALIRIMVSRSEIDMNEIKVFYQKKYGISLCQAILDETKGDYEKILVALCGGN
notes: Endogenous mouse protein; also called induced annexin 1
